Results taken from patent US20150147316A1 (Seagen, published 2015).

B1: h2H12EC-SGD-1910 (other)
VH: QVQLVQSGAEVKKPGASVKVSCKASGYTFTNYDINWVRQAPGQGLEWIGWIYPGDGSTKYNEKFKAKATLTADTSTSTAYMELRSLRSDDTAVYYCASGYEDAMDYWGQGTTVTVSS
VL: DIQMTQSPSSLSASVGDRVTINCKASQDINSYLSWFQQKPGKAPKTLIYRANRLVDGVPSRFSGSGSGQDYTLTISSLQPEDFATYYCLQYDEFPLTFGGGTKVEIK
modifications: drug-linker SGD-1910 (pyrrolobenzodiazepine dimer) on the cysteine introduced at position 239 of the IgG1 chain, average about 2 drugs per antibody
B2: h2H12-SGD-1269 (other)
VH: B1 VH
VL: B1 VL
modifications: drug-linker SGD-1269 (mcMMAF) on thiol groups of interchain disulfide cysteines, average about 4 drugs per antibody

How the values were obtained:
[1] = target: T1, human CD33 (human, UniProt P20138 18-364); test: cell-based or functional assay
T1 sequence (P20138 18-364): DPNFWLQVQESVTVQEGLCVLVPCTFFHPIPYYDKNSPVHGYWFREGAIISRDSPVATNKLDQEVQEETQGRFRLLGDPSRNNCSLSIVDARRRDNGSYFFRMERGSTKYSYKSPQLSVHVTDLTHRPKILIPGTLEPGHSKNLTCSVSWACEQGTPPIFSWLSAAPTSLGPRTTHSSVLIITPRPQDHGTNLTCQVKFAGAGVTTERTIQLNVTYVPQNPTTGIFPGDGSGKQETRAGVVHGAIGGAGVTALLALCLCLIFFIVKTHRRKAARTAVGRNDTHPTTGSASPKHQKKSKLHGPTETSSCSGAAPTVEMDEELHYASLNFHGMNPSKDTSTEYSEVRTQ

[2] = target: T1, human CD33; test: cell-based or functional assay; remark: listed apart in the source

Binder | IC50, cytotoxicity on HEL 92.1.7 cells (96 h, CelltiterGlo) [1] | IC50, cytotoxicity on HL-60 cells (96 h, CelltiterGlo) [1] | mean IC50 over 7 of 7 AML cell lines, cytotoxicity [1] | IC50 (ng/mL), cytotoxicity on HEL 92.1.7 cells [2] | IC50 (ng/mL), cytotoxicity on HL-60 cells [2] | IC50 (ng/mL), cytotoxicity on KG-1 cells [2] | IC50 (ng/mL), cytotoxicity on MV4-11 cells [2] | IC50 (ng/mL), cytotoxicity on TF1-α cells [2] | IC50 (ng/mL), cytotoxicity on TF-1 cells [2] | IC50 (ng/mL), cytotoxicity on U937 cells [2] | mean IC50 for responsive AML cell lines (4 of 7), cytotoxicity [1]
B1 | ~12.9 ng/mL | ~1.6 ng/mL | 20.4 ng/mL | 7 ng/mL | 1 ng/mL | 3 ng/mL | 0.1 ng/mL | 49 ng/mL | 61 ng/mL | 22 ng/mL | –
B2 | – | 5.3 ng/mL | – | > 1000 ng/mL | 2 ng/mL | 270 ng/mL | 0.1 ng/mL | > 1000 ng/mL | > 1000 ng/mL | 19 ng/mL | 72.8 ng/mL
